From patent US7070972 (US Dept. of Health and Human Services, dated 2006)

T1: common γ chain of the IL-2 receptor, wild type (UniProt P31785 23-369, limits assumed)
T1 construct: whole, on cells; Tested in cell lysates; also called wild type γc
T1 sequence (looked up): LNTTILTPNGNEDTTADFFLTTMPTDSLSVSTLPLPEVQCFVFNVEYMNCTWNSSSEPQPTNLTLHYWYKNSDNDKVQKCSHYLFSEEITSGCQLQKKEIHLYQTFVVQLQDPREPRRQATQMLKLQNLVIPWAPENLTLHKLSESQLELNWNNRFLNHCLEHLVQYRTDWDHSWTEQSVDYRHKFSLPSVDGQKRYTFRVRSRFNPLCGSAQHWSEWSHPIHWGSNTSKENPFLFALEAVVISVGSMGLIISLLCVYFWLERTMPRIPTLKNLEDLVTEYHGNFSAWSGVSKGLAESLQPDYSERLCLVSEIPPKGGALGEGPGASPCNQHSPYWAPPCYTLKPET

B1: JAK-3 protein (enzyme)
chain: MAPPSEETPLIPQRSCSLLSTEAGALHVLLPARAPGPPQRLSFSFGDHLAEDLCVQAAKASGILPVYHSLFALATEDLSCWFPPSHIFSVEDASTQVLLYRIRFYFPNWFGLEKCHRFGLRKDLASAILDLPVLEHLFAQHRSDLVSGRLPVGLSLKEQGECLSLAVLDLARMAREQAQRPGELLKTVSYKACLPPSLRDLIQGLSFVTRRAIRRTVRRALPRVAACQADRHSLMAKYIMDLERLDPAGAAETFHVGLPGALGGHDGLGLLRVAGDGGIAWTQGEQEVLQPFCDFPEIVDISIKQAPRVGPAGEHRLVTVTRTDNQILEAEFPGLPEALSFVALVDGYFRLTTDSQHFFCKEVAPPRLLEEVAEQCHGPITLDFAINKLKTGGSRPGSYVLRRSPQDFDSFLLTVCVQNPLGPDYKGCLIRRSPTGTFLLVGLSRPHSSLRELLATCWDGGLHVDGVAVTLTSCCIPRPKEKSNLIVVQRGHSPPTSSLVQPQSQYQLSQMTFHKIPADSLEWHENLGHGSFTKIYRGCRHEVVDGEARKTEVLLKVMDAKHKNCMESFLEAASLMSQVSYRHLVLLHGVCMAGDSTMVQEFVHLGAIDMYLRKRGHLVPASWKLQVVKQLAYALNYLEDKGLPHGNVSARKVLLAREGADGSPPFIKLSDPGVSPAVLSLEMLTDRIPWVAPECLREAQTLSLEADKWGFGATVWEVFSGVTMPISALDPAKKLQFYEDRQQLPAPKWTELALLIQQCMAYEPVQRPSFRAVIRDLNSLISSDYELLSDPTPGALAPRDGLWNGAQLYACQDPTIFEERHLKYISQLGKGNFGSVELCRYDPLAHNTGALVAVKQLQHSGPDQQRDFQREIQILKALHSDFIVKYRGVSYGPGRPELRLVMEYLPSGCLRDFLQRHRARLDASRLLLYSSQICKGMEYLGSRRCVHRDLAARNILVESEAHVKIADFGLAKLLPLDKDYYVVREPGQSPIFWYAPESLSDNIFSRQSDVWSFGVVLYELFTYCDKSCSPSAEFLRMMGCERDVPALCRLLELLEEGQRLPAPPACPAEVHELMKLCWAPSPQDRPSFSALGPQLDMLWSGSRGCETHAFTAHPEGKHHSLSFS
notes: Intracellular kinase of 1124 residues; Tested as the endogenous protein in lysates of HUT-78, YT, NK and NK3.3 cells, or as recombinant protein in lysates of transfected COS-7 cells; also called L-JAK; human JAK-3
B2: chimeric α/γ/γ receptor chain (receptor, UniProt P01589 22-240, looked up)
chain: ELCDDDPPEIPHATFKAMAYKEGTMLNCECKRGFRRIKSGSLYMLCTGNSSHSSWDNQCQCTSSATRNTTKQVTPQPEEQKERKTTEMQSPMQPVDQASLPGHCREPPPWENEATERIYHFVVGQMVYYQCVQGYRALHRGPAESVCKMTHGKTRWTQPQLICTGEMETSQFPGEEKPQASPEGRPESETSCLVTTTDFQIQTEMAATMETSIFTTEYQVVISVGSMGLIISLLCVYFWLERTMPRIPTLKNLEDLVTEYHGNFSAWSGVSKGLAESLQPDYSERLCLVSEIPPKGGALGEGPGASPCNQHSPYWAPPCYTLKPET

Experiments:
[1] = biological target: T1, common γ chain of the IL-2 receptor, …; test: co-immunoprecipitation from YT cell lysates with R878, JAK-3 Western blot
[2] = biological target: T2, JAK-1 (UniProt P23458 1-1154, limits assumed); test: anti-Tac immunoprecipitation, JAK-1 Western blot, COS-7 cotransfectants
T2 construct: whole, on cells; Tested in cell lysates
T2 sequence (P23458 whole entry): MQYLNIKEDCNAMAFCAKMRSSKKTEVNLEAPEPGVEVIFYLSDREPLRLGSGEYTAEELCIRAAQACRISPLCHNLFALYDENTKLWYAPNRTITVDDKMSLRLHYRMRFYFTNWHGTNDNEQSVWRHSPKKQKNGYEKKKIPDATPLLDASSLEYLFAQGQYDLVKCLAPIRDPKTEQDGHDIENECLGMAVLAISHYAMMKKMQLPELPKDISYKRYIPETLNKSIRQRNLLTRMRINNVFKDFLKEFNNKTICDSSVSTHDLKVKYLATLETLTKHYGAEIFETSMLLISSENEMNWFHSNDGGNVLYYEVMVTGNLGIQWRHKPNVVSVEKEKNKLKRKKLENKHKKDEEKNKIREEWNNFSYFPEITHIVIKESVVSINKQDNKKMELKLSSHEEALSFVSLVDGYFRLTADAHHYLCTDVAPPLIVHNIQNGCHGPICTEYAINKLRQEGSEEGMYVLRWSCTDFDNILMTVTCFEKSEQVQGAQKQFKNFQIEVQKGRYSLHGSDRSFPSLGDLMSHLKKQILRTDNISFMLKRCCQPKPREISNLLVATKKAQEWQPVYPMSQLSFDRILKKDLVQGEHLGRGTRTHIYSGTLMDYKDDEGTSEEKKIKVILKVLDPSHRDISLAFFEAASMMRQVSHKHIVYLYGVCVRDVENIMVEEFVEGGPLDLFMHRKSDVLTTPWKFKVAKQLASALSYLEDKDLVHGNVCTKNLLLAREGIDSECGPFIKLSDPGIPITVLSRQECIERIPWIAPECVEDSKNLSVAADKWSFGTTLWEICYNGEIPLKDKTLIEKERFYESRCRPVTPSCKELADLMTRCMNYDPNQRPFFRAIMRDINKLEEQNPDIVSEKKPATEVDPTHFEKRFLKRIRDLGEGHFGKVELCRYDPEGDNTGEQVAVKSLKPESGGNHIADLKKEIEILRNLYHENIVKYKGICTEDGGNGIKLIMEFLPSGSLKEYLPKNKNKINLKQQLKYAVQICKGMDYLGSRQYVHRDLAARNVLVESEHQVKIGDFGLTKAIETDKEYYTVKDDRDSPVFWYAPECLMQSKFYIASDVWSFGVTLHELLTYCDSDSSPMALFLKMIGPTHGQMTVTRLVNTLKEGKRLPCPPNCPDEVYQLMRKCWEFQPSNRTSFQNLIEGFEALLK

| Binder | binding result [1] | binding result [2] |
| --- | --- | --- |
| B1 | binds | – |
| B2 | – | no binding |
